This passage reports Kd and binding signal results from article PMC7571800.

Series [1] has as its target SUZ12(N);RBBP4;MTF2 full-length (Homo sapiens;Homo sapiens;Homo sapiens?, UniProt Q15022;Q09028;Q9Y483 76-545;1-425;1-593, ||). As to the kind of experiment: EMSA. Background: In EMSA bound probe runs differently from free probe, usually more slowly.
Series [2] has as its target SUZ12(N) 3D;RBBP4;MTF2 full-length (Homo sapiens;Homo sapiens;Homo sapiens?, UniProt Q15022;Q09028;Q9Y483 76-545;1-425;1-593, K195D;R196D;K197D||). As to the kind of experiment: EMSA.

SUZ12(N) 3D;RBBP4;MTF2 full-length, sequence (Q15022 76-545 K195D/R196D/K197D, chain 1 of 3): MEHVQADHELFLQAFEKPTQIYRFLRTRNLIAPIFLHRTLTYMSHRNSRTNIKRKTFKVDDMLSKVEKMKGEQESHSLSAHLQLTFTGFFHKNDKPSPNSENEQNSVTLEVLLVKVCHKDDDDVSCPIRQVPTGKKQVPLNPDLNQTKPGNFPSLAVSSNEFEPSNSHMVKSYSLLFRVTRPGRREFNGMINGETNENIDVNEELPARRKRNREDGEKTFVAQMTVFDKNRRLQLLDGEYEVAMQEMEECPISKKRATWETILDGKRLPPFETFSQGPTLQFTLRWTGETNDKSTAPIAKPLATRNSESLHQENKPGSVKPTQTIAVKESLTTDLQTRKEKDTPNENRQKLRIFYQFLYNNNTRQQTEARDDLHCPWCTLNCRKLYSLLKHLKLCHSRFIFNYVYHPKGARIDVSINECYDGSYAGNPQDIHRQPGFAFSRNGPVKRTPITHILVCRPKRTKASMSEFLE
SUZ12(N) 3D;RBBP4;MTF2 full-length, sequence (Q09028 whole entry, chain 2 of 3): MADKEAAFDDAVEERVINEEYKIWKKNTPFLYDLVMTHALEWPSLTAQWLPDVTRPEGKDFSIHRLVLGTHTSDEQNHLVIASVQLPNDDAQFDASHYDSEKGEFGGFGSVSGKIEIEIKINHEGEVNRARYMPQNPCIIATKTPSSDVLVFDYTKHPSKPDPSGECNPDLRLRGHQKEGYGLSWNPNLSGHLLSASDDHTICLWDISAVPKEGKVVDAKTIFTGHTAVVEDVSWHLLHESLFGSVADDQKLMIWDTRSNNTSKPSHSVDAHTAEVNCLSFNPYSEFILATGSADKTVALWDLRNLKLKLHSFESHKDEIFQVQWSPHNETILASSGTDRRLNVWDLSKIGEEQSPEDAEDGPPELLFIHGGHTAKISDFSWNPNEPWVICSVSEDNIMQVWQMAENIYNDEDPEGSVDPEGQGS
SUZ12(N) 3D;RBBP4;MTF2 full-length, sequence (Q9Y483 whole entry, chain 3 of 3): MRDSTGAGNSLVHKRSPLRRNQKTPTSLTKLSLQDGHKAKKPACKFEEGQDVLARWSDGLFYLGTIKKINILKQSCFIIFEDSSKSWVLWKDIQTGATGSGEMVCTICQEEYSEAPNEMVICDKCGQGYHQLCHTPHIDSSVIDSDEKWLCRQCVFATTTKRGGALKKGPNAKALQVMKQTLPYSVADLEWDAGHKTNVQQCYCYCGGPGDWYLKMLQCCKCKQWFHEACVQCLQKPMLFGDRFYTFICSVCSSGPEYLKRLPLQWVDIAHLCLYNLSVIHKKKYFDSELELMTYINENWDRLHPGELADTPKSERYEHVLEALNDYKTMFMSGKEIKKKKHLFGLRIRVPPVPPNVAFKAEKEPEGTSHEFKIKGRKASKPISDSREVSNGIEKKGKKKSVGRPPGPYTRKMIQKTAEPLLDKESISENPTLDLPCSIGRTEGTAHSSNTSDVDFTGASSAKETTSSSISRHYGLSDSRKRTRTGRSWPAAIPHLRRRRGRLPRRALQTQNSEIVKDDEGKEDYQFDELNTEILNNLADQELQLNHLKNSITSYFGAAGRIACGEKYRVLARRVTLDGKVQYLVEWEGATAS
SUZ12(N);RBBP4;MTF2 full-length, sequence (Q15022 76-545, chain 1 of 3): as the sequence (Q15022 76-545 K195D/R196D/K197D, chain 1 of 3) above, with D120K, D121R, D122K counted along it
SUZ12(N);RBBP4;MTF2 full-length, sequence (Q09028 whole entry, chain 2 of 3): as the sequence (Q09028 whole entry, chain 2 of 3) above
SUZ12(N);RBBP4;MTF2 full-length, sequence (Q9Y483 whole entry, chain 3 of 3): as the sequence (Q9Y483 whole entry, chain 3 of 3) above

B1: CGI-LHX6 100 bp (dsDNA)
DNA 1: GTGGTGGTGGTGGTTGAGAAAATAAAACCCAGAGCGCTAGGAGCATCCGCCCGCTCGACGCGCGCCGGGAAATTGAAGCGGGGATATTGACACCGATTCA
DNA 2: TGAATCGGTGTCAATATCCCCGCTTCAATTTCCCGGCGCGCGTCGAGCGGGCGGATGCTCCTAGCGCTCTGGGTTTTATTTTCTCAACCACCACCACCAC
The term Kd denotes the free concentration of one partner at which half of the binding sites on the other are occupied at equilibrium, for simple one-to-one binding. The low end stands for a tighter complex, the high end for a looser complex. Consider B1, for which the Kd in series [1] worked out at 17.6 nM. The molecule further registered a binding signal in series [2] greater than 25 fold weaker than WT.
